The term Kd denotes a measure of binding affinity in units of concentration. A lower Kd goes with a tighter complex.

Assay [1] relates to AD^1–330. Put plainly: NMR titration of R1-R2-R3^325–404 with UBA5 AD^1–330. The conditions noted are these: 2-fold molar excess of AD^1–330, 900 MHz. In kind it is binding. As for the experimental part: All NMR experiments were performed at a sample temperature of 25 °C on Bruker 600, 700, 800, 900, and 950 MHz spectrometers equipped with cryogenic probes, and a 500 MHz spectrometer equipped with a room-temperature triple-resonance probe. All NMR spectra were analyzed with the Sparky 3.114 software (University of California, San Francisco, USA). For NMR titration experiments, the non-labeled UBA5 peptides were titrated to 100 µM ^13C,^15N-labeled UFC1 to a final molar ratio of 1:8 (UFC1:UBA5 peptide). Conversely, 100 µM ^13C,^15N-labeled UBA5 peptides were titrated with non-labeled UFC1 to a final molar ratio 1:4 (UBA5 peptide:UFC1). 2D ^1H-^15N correlation spectra ([^15N,^1H] TROSY-HSQC) were recorded at each titration point. The same types of spectra were recorded to estimate binding of ^13C,^15N-labeled UFC1 (75 µM) to non-labeled UBA5, UBA5~UFM1 and UFM1 at 1:2 molar ratios. CSP values, Δδ, were calculated for each individual amide group using the formula Δδ = [(ΔδN/5)^2 + Δδ^2HN)]^1/2. […]
experiment, non‐labelled AD1–330 construct was added to the 15N‐labelled R1‐R2‐R3325–404 peptide to a 2‐fold molar excess.
Representative area of [15N,1H] TROSY‐HSQC spectra recorded at 900 MHz for R1‐R2‐R3325–404 in free form (red contours) and in presence of AD1–330 (blue contours) are overlaid. […]

Assay [2] addresses T1, UFC1 (Homo sapiens, UniProt Q9Y3C8).
T1 construct: Full length UFC1, residues 1–167; modified ubiquitin tag (Ub19) with TEV site (N, cleaved yes); made in house; host or cells: E. coli T7 Express
T1 sequence (Q9Y3C8 1-167): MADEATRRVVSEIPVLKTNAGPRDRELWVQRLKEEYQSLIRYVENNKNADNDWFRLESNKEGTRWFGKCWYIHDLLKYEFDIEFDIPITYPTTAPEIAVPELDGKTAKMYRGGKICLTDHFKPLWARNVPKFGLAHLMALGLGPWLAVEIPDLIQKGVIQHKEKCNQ
The assay can be described thus: ITC, UBA5 constructs vs UFC1. It counts as binding. The text has this: To understand how the UBA5 C-terminus participates in the ufmylation cascade, we performed isothermal titration calorimetry (ITC) experiments, in which we titrated UBA5 C-terminal peptides (see Table 1) to the UBA5 AD, UFC1, UFM1 and representative LC3/GABARAP proteins (Figure 2A, Supplementary Figure S2A–D and Table 2).
To investigate if conjugation of UFM1 to the UBA5 catalytic cysteine (C250) affects the UFC1:UBA5 interactions, we prepared full length UBA5 C250K mutant and stably conjugated UFM1 to it as reported before for a number of ubiquitin-specific E2 enzymes. We compared the UFC1 spectra after addition of a twofold molar excess of FL^1–404 and FL^1–404 C250K~UFM1 constructs (Supplementary Figure S5C).
All proteins and peptides were expressed in E.Coli T7 Express (New England Biolabs GmbH, Frankfurt, Germany) cells in LB or M9 (to obtain ^15N- and ^13C,^15N-labeled polypeptides) media according to the protocol described in [33, 36]. For protein purification, bacterial cell pellets were resuspended in lysis buffer (50 mM Tris-HCl pH = 7.5, 100 mM NaCl, 5% glycerol, 5 mM PIC (protease inhibitor cocktail)) and lysed via sonication (TT13 Sonotrode, 40% amplitude, for 6 × 1 min with a 0.5/0.5-s pulse). Lysates were centrifuged for 45 min at 17,000× g at 4 °C. Supernatants were loaded onto a His Trap Fast Flow 5 mL column (GE Healthcare, München, Germany) equilibrated in loading buffer (50 mM Tris-HCl pH = 8.0, 250 mM NaCl, 1% glycerol, 20 mM imidazole). The column was washed with loading buffer for 5–10 CV and protein was eluted with elution buffer (50 mM Tris-HCl pH = 8, 250 mM NaCl, 1% glycerol, 400 mM imidazole). Simultaneous TEV cleavage (1 mg TEV protease was added to 100 mg peptides/proteins) and buffer exchange to loading buffer via dialysis was performed over night at 4 °C. After reverse IMAC, proteins were concentrated with conical concentrators (Millipore Merck, Darmstadt, Germany) and loaded on a Superdex 10/60 75 or 200 column (GE Healthcare, München, Germany) for further purification and equilibration with ITC/NMR buffer (25 mM HEPES pH = 7.5, 100 mM NaCl). For structural NMR spectroscopy, buffer containing 50 mM Tris-HCl pH = 7.5, 100 mM NaCl was used. Prior to NMR experiments, TCEP and protease inhibitors cocktail were added to the samples to final concentrations 1 and 5 mM, respectively. Purified peptides and protein were concentrated and stored at −80 °C. The protein and peptide concentrations were calculated from the UV absorption at 280 nm by Nanodrop spectrophotometer (Thermo Scientific, Langenselbold, Germany).
All ITC experiments were performed at 25 °C using a VP-ITC microcalorimeter (Malvern Panalytical Ltd., Malvern, UK). Peptides in concentration of ~400 µM were titrated into 20–25 µM solutions of corresponding binding partner at a stirring speed of 307 rpm. The raw data were corrected on the dilution heat of peptides obtained in independent experiment (titration of the peptide in syringe into the ITC/NMR buffer in the measuring cell). Pre-titration delay was set to 180 s, interval between titration steps was experimentally adjusted to avoid kinetic contribution to the observed heat effects and set to 200 s. A single ITC profile was collected for each type of interaction. The ITC data were analyzed based on a “one-site” binding model with MicroCal ITC software implemented in Origin 7.0.

Regarding “R1-R2-R3^325–404: UBA5 C-terminal part, residues 325–404 (recombinant, E. coli)”, in assay [1], the “interaction with UBA5 AD” value was “No interactions”. Also, the N in assay [2] (ITC stoichiometry, peptide vs UFC1, ± = fitting error) was 1.03 ± 0.01. The “affinity increase to UFC1 vs R3^388–404” value in assay [2] (ITC, 25 °C) amounted to 3 fold. In addition, in assay [2] (ITC, 25 °C, peptide vs UFC1), the ΔG was -7.66 kcal/mol and the “−T*ΔS” value was -0.62 kcal/mol. Also, in assay [2] (ITC, 25 °C, peptide vs UFC1, one-site model, single profile), the ΔS was 2.09 cal mol^−1 K^−1. Moreover, the “KA*10^−6” value in assay [2] (ITC, 25 °C, peptide vs UFC1, value is KA × 10^−6, ± = fitting error) was 0.41 ± 0.02 M^−1. For the same substance, in assay [2] (ITC, VP-ITC, 25 °C, peptide ~400 µM titrated into 20–25 µM UFC1, 25 mM HEPES pH 7.5, 100 mM NaCl, one-site model, single ITC profile), binding was characterised by a dissociation constant (Kd) of 2400 nM. Moreover, the ΔH in assay [2] (ITC, VP-ITC, 25 °C, peptide ~400 µM titrated into 20–25 µM UFC1, 25 mM HEPES pH 7.5, 100 mM NaCl, one-site model, single ITC profile, ± = fitting error) was -7.04 ± 0.07 kcal/mol.

(Values after paper PMC8304084, “A Concerted Action of UBA5 C-Terminal Unstructured Regions Is Important for Transfer of Activated UFM1 to UFC1” (International Journal of Molecular Sciences, 2021).)
